The results in this text go back to publication PMC10278182 (2023).

The target of assay [1] is T1, WD40 repeat protein 5 truncation mutant lacking residues 1-22 (WDR5ΔN) (UniProt P61964 23-334). In words: short-lived events (koff-1), 0.5 [WDR5].
Assay [2] concerns the target T1, WD40 repeat protein 5 truncation mutant …. As to the kind of experiment: medium-lived events (koff-2), 0.5 [WDR5].
Assay [3] shares this target. As to the kind of experiment: medium-lived events (koff-2), 4 [WDR5].
The target is the same in assay [4]. In words: medium-lived events (koff-2), 1 [WDR5].
Assay [5] shares this target. As to the kind of experiment: short-lived events (koff-1), 2 [WDR5].
Assay [6] has the same target. In words: short-lived events (koff-1), 4 [WDR5].
The target is the same in assay [7]. In words: short-lived events (koff-1), event durations.
Assay [8] shares this target. As to the kind of experiment: long-lived events (koff-3), 4 [WDR5].
The target is the same in assay [9]. In words: long-lived events (koff-3), 0.5 [WDR5].
Assay [10] has the same target. As to the kind of experiment: long-lived events (koff-3), 2 [WDR5].
Assay [11] shares this target. As to the kind of experiment: long-lived events (koff-3), 1 [WDR5].
Assay [12] has the same target. In words: medium-lived events (koff-2), event durations.
Assay [13] shares this target. In words: long-lived events (koff-3), event durations.
The target is the same in assay [14]. In words: short-lived events (koff-1), 1 [WDR5].
For assay [15] the target is unchanged. In words: medium-lived events (koff-2), 2 [WDR5].
Assay [16] shares this target. As to the kind of experiment: short-lived events (koff-1), 4 [WDR5]. The source holds these as a separate data set.
For assay [17] the target is unchanged. As to the kind of experiment: long-lived events (koff-3), 0.5 [WDR5]. The source holds these as a separate data set.
For assay [18] the target is unchanged. In words: short-lived events (koff-1), 1 [WDR5]. The source holds these as a separate data set.
Assay [19] has the same target. As to the kind of experiment: medium-lived events (koff-2), 1 [WDR5]. This is another data set of the same source.
For assay [20] the target is unchanged. As to the kind of experiment: medium-lived events (koff-2), 4 [WDR5]. The source holds these as a separate data set.
The target is the same in assay [21]. As to the kind of experiment: medium-lived events (koff-2), 2 [WDR5]. This is another data set of the same source.
Assay [22] shares this target. In words: short-lived events (koff-1), 0.5 [WDR5]. This is another data set of the same source.
The target is the same in assay [23]. In words: long-lived events (koff-3), 4 [WDR5]. This is another data set of the same source.
The target is the same in assay [24]. As to the kind of experiment: long-lived events (koff-3), 1 [WDR5]. The source holds these as a separate data set.
For assay [25] the target is unchanged. As to the kind of experiment: long-lived events (koff-3), 2 [WDR5]. The source holds these as a separate data set.

For MGDRGPEFELGTMLNPHGAARAEVYLRGGSGGSGGSGGS (other) [O(GGS)4 nanopore sensor (adaptor O - MLL4Win - (GGS)4 tether - tFhuA)], the dissociation rate constant (koff) in [1] was determined as 84 s⁻¹; in assay [2], 8.9 s⁻¹; in [3] it was 9.5 s⁻¹; in [4], 9.4 s⁻¹; in assay [5], 87 s⁻¹; in assay [6] it was 81 s⁻¹. For the same molecule, the koff in assay [7] was 87 s⁻¹; in assay [8], 0.79 s⁻¹; in [9], 0.84 s⁻¹; in assay [10], 0.77 s⁻¹; in assay [11] it was 0.77 s⁻¹; in assay [12] it was 9.9 s⁻¹. Besides, the koff in assay [13] amounted to 0.77 s⁻¹; in [14], 91 s⁻¹; in [15] it was 9.9 s⁻¹.
Consider MGDRGPEFELGTMLNPHGAARAEVYLRPAPAPA (other) [O(PA)3 nanopore sensor (adaptor O - MLL4Win - (PA)3 tether - tFhuA)], for which the koff in assay [7] amounted to 210 s⁻¹; in assay [12], 34 s⁻¹.
As for MGDRGPEFELGTMLNPHGAARAEVYLRPAPAPAPAPAPA (other) [O(PA)6 nanopore sensor (adaptor O - MLL4Win - (PA)6 tether - tFhuA)], the off-rate constant (koff) in [16] stood at 167 s⁻¹; in assay [17] it was 0.77 s⁻¹; in [18] it was 159 s⁻¹; in assay [19], 23 s⁻¹; in [20], 21 s⁻¹; in [21], 20 s⁻¹. Moreover, the koff was determined as 178 s⁻¹ in assay [22]; 0.73 s⁻¹ in assay [23]; 0.78 s⁻¹ in [24]; 20 s⁻¹ in assay [12]; 0.77 s⁻¹ in assay [13]; 0.77 s⁻¹ in assay [25].
On to MGDRGPEFELGTMLNPHGAARAEVYLRGGSGGS (other) [O(GGS)2 nanopore sensor (adaptor O - MLL4Win - (GGS)2 tether - tFhuA)], for which the results for the koff in [7] and in assay [12] were 86 s⁻¹ and 9.2 s⁻¹, respectively.

For orientation: koff means the rate constant with which the complex falls apart. Higher therefore signals a short-lived complex.
